Measured values published in US8278415B2, “Dimeric high affinity EGFR constructs and uses thereof” (Centocor, Inc., priority 2006, dated 2012).

Experiments:
sEGFR-MMB = target: T1, sEGFR-MMB (Homo sapiens, UniProt P00533); test: P190-MMB constructs, solid phase assays (BIAcore and ELISA) on immobilized sEGFR-MMB; type: binding
T1 construct: made in house; host or cells: HEK 293E
Source text: In contrast, 190-MMB as the 4316 construct, binds EGFR and the presence of excess EGF promotes its binding.

EGFR = target: T2, EGFR (Homo sapiens, UniProt P00533); test: FACE (Fast Activated Cell-based ELISA) of EGFR phosphorylation
T2 construct: endogenous in cells

A431 cells = test: FACS of P190-MMB constructs or cetuximab on A431 cells; type: cell-based, human; conditions: excess EGF

binding in solid phase assays and cell-based FACS (sEGFR-MMB; comparison of linker lengths): best binder
EGFR phosphorylation (receptor activation) (EGFR; absence of EGF): did not induce EGFR phosphorylation
B1: 4316: P190-MMB construct with the longest linker, Flex GGGGS, n 4, SEQ ID NO: 81 (protein)
chain: GGDPCTWEVWGRECLQGGGGSGGGGSGGGGSGGGGSCPPCPAPEAAGGPSVFLFPPKPKDTLMISRTPEVTCVVVDVSQEDPEVQFNWYVDGVEVHNAKTKPREEQFNSTYRVVSVLTVLHQDWLNGKEYKCKVSNKGLPSSIEKTISKAKGQPREPQVYTLPPSQEEMTKNQVSLTCLVKGFYPSDIAVEWESNGQPENNYKTTPPVLDSDGSFFLYSRLTVDKSRWQEGNVFSCSVMHEALHNHYTQKSLSLSLGK
on-rate (sEGFR-MMB; BIAcore, no dissociation constant obtained): much more pronounced on-rate than the other constructs
interference with EGF activation of EGFR (EGFR): nor interfere with EGF activation of EGFR
effect of EGF on binding to A431 (A431 cells): enhanced binding
